Results reported in publication PMC6863848, “Selection of an optimal macrocyclic chelator improves the imaging of prostate cancer using cobalt-labeled GRPR antagonist RM26” (Scientific Reports, 2019).

Experiments:
[1] = Ex vivo biodistribution and tumor targeting; conditions: female, BALB/c nu/nu, mouse, iv, 45 pmol per mouse, total radioactivity
Description: (§1) Euthanasia was performed by intraperitoneal injection of Ketalar-Rompun solution (10 mg/mL Ketalar and 1 mg/mL Rompun; 20 µL/g body weight) and all efforts were made to minimize suffering. Groups of 4 mice per data point were used.
(§2) Blood samples were collected by heart puncture. Lung, liver, spleen, pancreas, stomach, small intestines, kidneys, muscle, bone, and the rest of gastrointestinal tract with its content were collected, weighed and measured in a gamma-counter. The organ uptake values were expressed as a percentage of injected dose per gram of tissue weight (%ID/g) with the exception of gastrointestinal tract and the remaining carcass, which were calculated as %ID per whole sample.
(§3) The biodistribution and targeting properties of ^57Co-X-PEG2-RM26 were evaluated in female BALB/c nu/nu mice (weight: 18 ± 2 g). GRPR-expressing xenografts were established by subcutaneous injection of 8 × 10^6 PC-3 cells/mouse, 2 weeks prior to the experiment. At the time of experiment, the mice were intravenously injected with ^57Co-X-PEG2-RM26 (25 kBq, 45 pmol in 100 µL PBS per mouse) and were euthanized 3 and 24 h pi.

[2] = tested on: PC-3 xenografted BALB/c nu/nu mice; assay: Ex vivo biodistribution and tumor targeting; conditions: 24 h pi
Description: as §1, §2, §3

NMRI mice = conditions: 25 kBq, 3 and 24 h pi
Description: as §2

in vivo = conditions: female, BALB/c nu/nu, mouse, iv, 45 pmol per mouse, total radioactivity
Description: as §1, §2, §3

[3] = blood, Blood uptake, PC-3-xenografted BALB/c nu/nu mice, iv 25 kBq/45 pmol, 3 h pi, 4 mice per data point
[4] = blood, Blood uptake, PC-3-xenografted BALB/c nu/nu mice, iv 25 kBq/45 pmol, 24 h pi, 4 mice per data point
[5] = bone, Bone uptake, PC-3-xenografted BALB/c nu/nu mice, iv 25 kBq/45 pmol, 3 h pi, 4 mice per data point
[6] = bone, Bone uptake, PC-3-xenografted BALB/c nu/nu mice, iv 25 kBq/45 pmol, 24 h pi, 4 mice per data point
[7] = gastrointestinal tract with content (whole sample)
[8] = kidneys, Kidneys uptake, PC-3-xenografted BALB/c nu/nu mice, iv 25 kBq/45 pmol, 3 h pi, 4 mice per data point
[9] = kidneys, Kidneys uptake, PC-3-xenografted BALB/c nu/nu mice, iv 25 kBq/45 pmol, 24 h pi, 4 mice per data point
[10] = liver, Liver uptake, PC-3-xenografted BALB/c nu/nu mice, iv 25 kBq/45 pmol, 3 h pi, 4 mice per data point
[11] = liver, Liver uptake, PC-3-xenografted BALB/c nu/nu mice, iv 25 kBq/45 pmol, 24 h pi, 4 mice per data point
[12] = lung, Lung uptake, PC-3-xenografted BALB/c nu/nu mice, iv 25 kBq/45 pmol, 3 h pi, 4 mice per data point
[13] = lung, Lung uptake, PC-3-xenografted BALB/c nu/nu mice, iv 25 kBq/45 pmol, 24 h pi, 4 mice per data point
[14] = muscle, Muscle uptake, PC-3-xenografted BALB/c nu/nu mice, iv 25 kBq/45 pmol, 3 h pi, 4 mice per data point
[15] = muscle, Muscle uptake, PC-3-xenografted BALB/c nu/nu mice, iv 25 kBq/45 pmol, 24 h pi, 4 mice per data point
[16] = pancreas, Pancreas uptake, PC-3-xenografted BALB/c nu/nu mice, iv 25 kBq/45 pmol, 3 h pi, 4 mice per data point
[17] = pancreas, Pancreas uptake, PC-3-xenografted BALB/c nu/nu mice, iv 25 kBq/45 pmol, 24 h pi, 4 mice per data point
[18] = remaining carcass (whole sample)
[19] = small intestine, Sm. Int. uptake, PC-3-xenografted BALB/c nu/nu mice, iv 25 kBq/45 pmol, 3 h pi, 4 mice per data point
[20] = small intestine, Sm. Int. uptake, PC-3-xenografted BALB/c nu/nu mice, iv 25 kBq/45 pmol, 24 h pi, 4 mice per data point
[21] = spleen, Spleen uptake, PC-3-xenografted BALB/c nu/nu mice, iv 25 kBq/45 pmol, 3 h pi, 4 mice per data point
[22] = spleen, Spleen uptake, PC-3-xenografted BALB/c nu/nu mice, iv 25 kBq/45 pmol, 24 h pi, 4 mice per data point
[23] = stomach, Stomach uptake, PC-3-xenografted BALB/c nu/nu mice, iv 25 kBq/45 pmol, 3 h pi, 4 mice per data point
[24] = stomach, Stomach uptake, PC-3-xenografted BALB/c nu/nu mice, iv 25 kBq/45 pmol, 24 h pi, 4 mice per data point
[25] = tumor, Tumor uptake, PC-3-xenografted BALB/c nu/nu mice, iv 25 kBq/45 pmol, 3 h pi, 4 mice per data point
[26] = tumor, Tumor uptake, PC-3-xenografted BALB/c nu/nu mice, iv 25 kBq/45 pmol, 24 h pi, 4 mice per data point

SMILES	tissue uptake at 3 h [1, 3] [%ID/g]	tissue uptake at 24 h [1, 4] [%ID/g]	tissue uptake at 3 h [1, 5] [%ID/g]	tissue uptake at 24 h [1, 6] [%ID/g]	tissue uptake dose at 3 h [1, 7] [%ID]	tissue uptake dose at 24 h [1, 7] [%ID]	tissue uptake at 3 h [1, 8] [%ID/g]	tissue uptake at 3 h [1, 10] [%ID/g]	tissue uptake at 24 h [1, 11] [%ID/g]	tissue uptake at 3 h [1, 12] [%ID/g]	tissue uptake at 24 h [1, 13] [%ID/g]	tissue uptake at 24 h [1, 15] [%ID/g]	tissue uptake at 24 h [1, 17] [%ID/g]	tissue uptake dose at 3 h [1, 18] [%ID]	tissue uptake dose at 24 h [1, 18] [%ID]	tissue uptake at 3 h [1, 19] [%ID/g]	tissue uptake at 24 h [1, 22] [%ID/g]	tissue uptake at 3 h [1, 23] [%ID/g]	tissue uptake at 3 h [1, 25] [%ID/g]	tissue uptake at 24 h [1, 26] [%ID/g]	other results
CC(C)C[C@H](NC(=O)C[C@H](O)[C@H](CC(C)C)NC(=O)[C@H](Cc1c[nH]cn1)NC(=O)CNC(=O)[C@@H](NC(=O)[C@H](C)NC(=O)[C@H](Cc1c[nH]c2ccccc12)NC(=O)[C@H](CCC(N)=O)NC(=O)[C@@H](Cc1ccccc1)NC(=O)COCCOCCNC(=O)CCC(C(=O)O)N1CCN(CC(=O)O)CCN(CC(=O)O)CC1)C(C)C)C(N)=O (stereo partly drawn) [NODAGA]	0.032 ± 0.009	0.006 ± 0.003	0.1 ± 0.2	0.007 ± 0.002	5 ± 1	0.3 ± 0.2	2.5 ± 0.8	0.08 ± 0.02	0.02 ± 0.01	0.05 ± 0.01	0.02 ± 0.01	0.006 ± 0.005	0.02 ± 0.03	1.3 ± 0.3	0.1 ± 0.1	0.3 ± 0.3	0.009 ± 0.002	0.39 ± 0.09	6.3 ± 1.2	2.3 ± 0.9	tissue uptake at 24 h [1, 9]: 0.7 ± 0.4 %ID/g; tissue uptake at 3 h [1, 14]: 0.02 ± 0.01 %ID/g; tissue uptake at 3 h [1, 16]: 0.3 ± 0.2 %ID/g; tissue uptake at 24 h [1, 20]: 0.015 ± 0.007 %ID/g; tissue uptake at 3 h [1, 21]: 0.05 ± 0.02 %ID/g; tissue uptake at 24 h [1, 24]: 0.04 ± 0.01 %ID/g
CC(C)C[C@H](NC(=O)C[C@H](O)[C@H](CC(C)C)NC(=O)[C@H](Cc1c[nH]cn1)NC(=O)CNC(=O)[C@@H](NC(=O)[C@H](C)NC(=O)[C@H](Cc1c[nH]c2ccccc12)NC(=O)[C@H](CCC(N)=O)NC(=O)[C@@H](Cc1ccccc1)NC(=O)COCCOCCNC(=O)CCC(C(=O)O)N1CCN(CC(=O)O)CCN(CC(=O)O)CCN(CC(=O)O)CC1)C(C)C)C(N)=O (stereo partly drawn) [DOTAGA]	0.02 ± 0.01	0.005 ± 0.002	0.02 ± 0.005	0.02 ± 0.03	1 ± 0.5	0.1 ± 0.1	3.5 ± 0.4	0.08 ± 0.02	0.04 ± 0.01	0.07 ± 0.03	0.02 ± 0.02	0.007 ± 0.007	0.028 ± 0.009	1.9 ± 0.9	0.3 ± 0.3	0.13 ± 0.05	0.016 ± 0.009	0.4 ± 0.3	6.9 ± 2.7	2.3 ± 0.7	tissue uptake at 24 h [1, 9]: 1.8 ± 0.5 %ID/g; tissue uptake at 3 h [1, 14]: 0.04 ± 0.01 %ID/g; tissue uptake at 3 h [1, 16]: 0.4 ± 0.1 %ID/g; tissue uptake at 24 h [1, 20]: 0.02 ± 0.01 %ID/g; tissue uptake at 3 h [1, 21]: 0.08 ± 0.05 %ID/g; tissue uptake at 24 h [1, 24]: 0.018 ± 0.004 %ID/g; Kidney uptake, higher compared to NODAGA- and DOTA-containing analogues [2]: twofold higher
[57Co+2].[Cl-].[Cl-] [free cobalt, cobalt-57 chloride]	–	–	–	–	–	–	–	–	–	–	–	–	–	–	–	–	–	–	–	–	Biodistribution pattern (NMRI mice): Uniform activity distribution
CC(C)C[C@H](NC(=O)C[C@H](O)[C@H](CC(C)C)NC(=O)[C@H](Cc1c[nH]cn1)NC(=O)CNC(=O)[C@@H](NC(=O)[C@H](C)NC(=O)[C@H](Cc1c[nH]c2ccccc12)NC(=O)[C@H](CCC(N)=O)NC(=O)[C@@H](Cc1ccccc1)NC(=O)COCCOCCNC(=O)CN1CCN(CC(=O)O)CCN(CC(=O)O)CCN(CC(=O)O)CC1)C(C)C)C(N)=O [DOTA]	0.028 ± 0.006	0.007 ± 0.002	0.08 ± 0.03	0.09 ± 0.06	4.8 ± 0.1	0.21 ± 0.09	1.9 ± 0.3	0.078 ± 0.009	0.034 ± 0.003	0.06 ± 0.01	0.023 ± 0.004	0.02 ± 0.01	0.05 ± 0.01	0.9 ± 0.4	0.2 ± 0.1	0.9 ± 0.1	0.035 ± 0.006	2.1 ± 0.6	8.1 ± 0.6	4.4 ± 1.3	tissue uptake dose at 3 h ([1]; gastrointestinal tract with contents): 5 %ID; tissue uptake at 24 h ([1]; kidneys): 0.8 ± 0.2 %ID/g; tissue uptake at 3 h ([1]; muscle): 0.4 ± 0.7 %ID/g; tissue uptake at 3 h [1, 16]: 2.5 ± 0.8 %ID/g; tissue uptake at 24 h [1, 20]: 0.06 ± 0.02 %ID/g; tissue uptake at 3 h [1, 21]: 0.09 ± 0.02 %ID/g; tissue uptake at 24 h [1, 24]: 0.06 ± 0.02 %ID/g; Tumor radioactivity, higher than other conjugates [2]: twofold higher
CC(C)C[C@H](NC(=O)C[C@H](O)[C@H](CC(C)C)NC(=O)[C@H](Cc1c[nH]cn1)NC(=O)CNC(=O)[C@@H](NC(=O)[C@H](C)NC(=O)[C@H](Cc1c[nH]c2ccccc12)NC(=O)[C@H](CCC(N)=O)NC(=O)[C@@H](Cc1ccccc1)NC(=O)COCCOCCNC(=O)CN1CCN(CC(=O)O)CCN(CC(=O)O)CC1)C(C)C)C(N)=O [NOTA]	0.019 ± 0.004	0.006 ± 0.001	0.04 ± 0.04	–	0.6 ± 0.1	0.09 ± 0.03	0.93 ± 0.05	–	0.025 ± 0.005	0.065 ± 0.005	0.09 ± 0.15	0.011 ± 0.005	0.023 ± 0.002	0.6 ± 0.4	0.18 ± 0.06	0.098 ± 0.028	0.029 ± 0.004	0.3 ± 0.1	7.3 ± 1.3	2.1 ± 0.2	tissue uptake at 24 h (in vivo; Bone uptake): 0.08 ± 0.05 %ID/g; tissue uptake at 24 h (in vivo; Kidneys uptake): 0.09 ± 0.03 %ID/g; tissue uptake at 3 h (in vivo; Liver uptake): 0.07 ± 0.004 %ID/g; tissue uptake at 3 h (in vivo; Pancreas uptake): 0.21 ± 0.052 %ID/g; tissue uptake at 24 h (in vivo; Sm. Int. uptake): 0.06 ± 0.03 %ID/g; tissue uptake at 3 h (in vivo; Spleen uptake): 0.05 ± 0.008 %ID/g; tissue uptake at 24 h (in vivo; Stomach uptake): 0.05 ± 0.03 %ID/g; tissue uptake at 3 h [1, 14]: 0.08 ± 0.1 %ID/g
